T1: GST-KBP (kinesin-binding protein) (human, UniProt Q96EK5 1-621)
T1 sequence (looked up): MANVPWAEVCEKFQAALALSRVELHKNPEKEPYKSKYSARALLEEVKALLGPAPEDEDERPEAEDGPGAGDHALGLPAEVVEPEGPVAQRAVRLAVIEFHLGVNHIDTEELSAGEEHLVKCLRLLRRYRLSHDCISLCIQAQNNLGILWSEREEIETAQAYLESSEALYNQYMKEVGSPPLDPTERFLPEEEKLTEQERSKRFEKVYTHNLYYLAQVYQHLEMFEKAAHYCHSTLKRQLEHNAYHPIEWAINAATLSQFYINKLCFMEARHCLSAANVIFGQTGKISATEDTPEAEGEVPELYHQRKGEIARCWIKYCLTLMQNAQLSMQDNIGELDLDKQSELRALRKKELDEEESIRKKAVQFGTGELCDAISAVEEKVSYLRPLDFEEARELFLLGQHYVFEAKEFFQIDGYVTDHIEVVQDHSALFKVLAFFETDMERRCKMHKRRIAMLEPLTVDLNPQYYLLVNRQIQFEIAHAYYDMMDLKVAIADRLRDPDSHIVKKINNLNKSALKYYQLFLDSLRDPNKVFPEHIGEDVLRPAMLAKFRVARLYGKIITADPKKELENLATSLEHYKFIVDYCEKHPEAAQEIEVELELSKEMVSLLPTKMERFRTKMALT

B1: His6-KIF15-N420 (domain or fragment, human, UniProt Q9NS87 1-420, looked up)
chain: MAPGCKTELRSVTNGQSNQPSNEGDAIKVFVRIRPPAERSGSADGEQNLCLSVLSSTSLRLHSNPEPKTFTFDHVADVDTTQESVFATVAKSIVESCMSGYNGTIFAYGQTGSGKTFTMMGPSESDNFSHNLRGVIPRSFEYLFSLIDREKEKAGAGKSFLCKCSFIEIYNEQIYDLLDSASAGLYLREHIKKGVFVVGAVEQVVTSAAEAYQVLSGGWRNRRVASTSMNRESSRSHAVFTITIESMEKSNEIVNIRTSLLNLVDLAGSERQKDTHAEGMRLKEAGNINRSLSCLGQVITALVDVGNGKQRHVCYRDSKLTFLLRDSLGGNAKTAIIANVHPGSRCFGETLSTLNFAQRAKLIKNKAVVNEDTQGNVSQLQAEVKRLKEQLAELASGQTPPESFLTRDKKKTNYMEYFQE
B2: KIF18A-N480-GFP-His6 (domain or fragment, human, UniProt Q8NI77 1-480, looked up)
chain: MSVTEEDLCHHMKVVVRVRPENTKEKAAGFHKVVHVVDKHILVFDPKQEEVSFFHGKKTTNQNVIKKQNKDLKFVFDAVFDETSTQSEVFEHTTKPILRSFLNGYNCTVLAYGATGAGKTHTMLGSADEPGVMYLTMLHLYKCMDEIKEEKICSTAVSYLEVYNEQIRDLLVNSGPLAVREDTQKGVVVHGLTLHQPKSSEEILHLLDNGNKNRTQHPTDMNATSSRSHAVFQIYLRQQDKTASINQNVRIAKMSLIDLAGSERASTSGAKGTRFVEGTNINRSLLALGNVINALADSKRKNQHIPYRNSKLTRLLKDSLGGNCQTIMIAAVSPSSVFYDDTYNTLKYANRAKDIKSSLKSNVLNVNNHITQYVKICNEQKAEILLLKEKLKAYEEQKAFTNENDQAKLMISNPQEKEIERFQEILNCLFQNREEIRQEYLKLEMLLKENELKSFYQQQCHKQIEMMCSEDKVEKATGKR

Target: T1, GST-KBP (kinesin-binding protein)
Test: pull-down

Row | Binder | binding result
1 | B1 | binds
2 | B2 | binds

Reference: paper PMC6446846 (The Journal of Cell Biology, 2019)
